What all share (experiment): SPR, KD relative to WT C2;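 also: biacore SPR at 37 °C, anti-C2 mAbs captured via immobilised goat anti-human IgG, C2 alanine or serine surface mutants as analytes, 1:1 model fitted, double-referenced sensograms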
On the technique in general: In SPR one partner is held on a chip, and binding of the other changes the refractive index at the surface.

The target in assay [1] is T1, human C2 V722A (human, UniProt P06681 21-752).
T1 sequence: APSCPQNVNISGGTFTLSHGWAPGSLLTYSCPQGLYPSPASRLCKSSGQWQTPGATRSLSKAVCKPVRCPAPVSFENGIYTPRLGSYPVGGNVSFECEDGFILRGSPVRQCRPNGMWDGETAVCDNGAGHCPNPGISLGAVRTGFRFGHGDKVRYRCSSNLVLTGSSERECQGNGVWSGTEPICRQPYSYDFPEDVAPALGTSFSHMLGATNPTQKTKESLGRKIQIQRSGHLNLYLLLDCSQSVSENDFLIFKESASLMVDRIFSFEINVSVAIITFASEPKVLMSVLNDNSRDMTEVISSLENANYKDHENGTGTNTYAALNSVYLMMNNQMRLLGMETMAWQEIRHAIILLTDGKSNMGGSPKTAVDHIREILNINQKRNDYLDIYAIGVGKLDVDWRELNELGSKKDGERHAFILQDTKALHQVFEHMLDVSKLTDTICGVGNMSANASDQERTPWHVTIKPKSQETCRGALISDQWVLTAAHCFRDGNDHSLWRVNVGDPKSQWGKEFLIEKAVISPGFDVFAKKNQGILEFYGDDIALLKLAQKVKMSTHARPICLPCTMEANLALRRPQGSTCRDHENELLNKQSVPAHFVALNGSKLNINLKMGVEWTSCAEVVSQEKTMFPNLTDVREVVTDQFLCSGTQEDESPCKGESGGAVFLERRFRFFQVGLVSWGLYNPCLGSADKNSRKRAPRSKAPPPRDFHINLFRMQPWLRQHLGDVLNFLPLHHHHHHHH

In assay [2] the target is T2, human C2 E450A (human, UniProt P06681 21-752).
T2 sequence: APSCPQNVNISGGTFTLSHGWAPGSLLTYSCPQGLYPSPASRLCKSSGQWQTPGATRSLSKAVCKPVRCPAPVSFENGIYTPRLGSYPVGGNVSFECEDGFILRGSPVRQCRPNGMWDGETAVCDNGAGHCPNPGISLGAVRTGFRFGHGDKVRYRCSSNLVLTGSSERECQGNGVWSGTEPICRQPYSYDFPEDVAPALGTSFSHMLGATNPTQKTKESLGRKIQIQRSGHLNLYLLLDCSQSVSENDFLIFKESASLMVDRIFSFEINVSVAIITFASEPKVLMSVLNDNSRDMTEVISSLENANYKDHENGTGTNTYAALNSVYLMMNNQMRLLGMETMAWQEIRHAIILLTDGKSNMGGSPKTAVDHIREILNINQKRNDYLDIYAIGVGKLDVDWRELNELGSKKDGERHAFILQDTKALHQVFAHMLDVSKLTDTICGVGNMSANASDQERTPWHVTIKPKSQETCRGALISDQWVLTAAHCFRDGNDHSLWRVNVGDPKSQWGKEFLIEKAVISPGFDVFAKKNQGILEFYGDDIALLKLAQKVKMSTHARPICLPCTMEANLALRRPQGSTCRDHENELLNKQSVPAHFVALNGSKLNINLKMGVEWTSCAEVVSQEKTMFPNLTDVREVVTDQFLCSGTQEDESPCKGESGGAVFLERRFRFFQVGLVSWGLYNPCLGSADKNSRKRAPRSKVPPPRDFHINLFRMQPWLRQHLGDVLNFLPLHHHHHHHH

Assay [3] has as its target T3, human C2 R510A (human, UniProt P06681 21-752).
T3 sequence: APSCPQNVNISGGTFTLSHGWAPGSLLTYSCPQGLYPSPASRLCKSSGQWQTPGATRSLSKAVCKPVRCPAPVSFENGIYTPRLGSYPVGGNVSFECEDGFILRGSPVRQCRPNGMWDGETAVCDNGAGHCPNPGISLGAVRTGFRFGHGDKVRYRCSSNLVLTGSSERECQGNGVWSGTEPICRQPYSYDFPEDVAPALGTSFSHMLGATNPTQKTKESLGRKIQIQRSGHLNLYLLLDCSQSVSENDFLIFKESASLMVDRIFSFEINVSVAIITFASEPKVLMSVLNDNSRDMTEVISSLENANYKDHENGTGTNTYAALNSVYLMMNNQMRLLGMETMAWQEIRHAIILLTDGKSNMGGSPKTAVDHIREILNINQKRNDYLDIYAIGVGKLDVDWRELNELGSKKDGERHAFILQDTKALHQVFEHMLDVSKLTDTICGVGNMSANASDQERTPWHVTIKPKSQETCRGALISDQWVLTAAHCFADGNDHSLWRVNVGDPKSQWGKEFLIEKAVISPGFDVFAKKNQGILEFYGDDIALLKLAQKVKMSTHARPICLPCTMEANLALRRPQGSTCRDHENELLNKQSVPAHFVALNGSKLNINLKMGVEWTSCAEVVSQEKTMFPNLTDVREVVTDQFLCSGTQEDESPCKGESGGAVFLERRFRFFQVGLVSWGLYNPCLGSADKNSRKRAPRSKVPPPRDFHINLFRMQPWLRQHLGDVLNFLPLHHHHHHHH

Assay [4] addresses T4, human C2 D561A (human, UniProt P06681 21-752).
T4 sequence: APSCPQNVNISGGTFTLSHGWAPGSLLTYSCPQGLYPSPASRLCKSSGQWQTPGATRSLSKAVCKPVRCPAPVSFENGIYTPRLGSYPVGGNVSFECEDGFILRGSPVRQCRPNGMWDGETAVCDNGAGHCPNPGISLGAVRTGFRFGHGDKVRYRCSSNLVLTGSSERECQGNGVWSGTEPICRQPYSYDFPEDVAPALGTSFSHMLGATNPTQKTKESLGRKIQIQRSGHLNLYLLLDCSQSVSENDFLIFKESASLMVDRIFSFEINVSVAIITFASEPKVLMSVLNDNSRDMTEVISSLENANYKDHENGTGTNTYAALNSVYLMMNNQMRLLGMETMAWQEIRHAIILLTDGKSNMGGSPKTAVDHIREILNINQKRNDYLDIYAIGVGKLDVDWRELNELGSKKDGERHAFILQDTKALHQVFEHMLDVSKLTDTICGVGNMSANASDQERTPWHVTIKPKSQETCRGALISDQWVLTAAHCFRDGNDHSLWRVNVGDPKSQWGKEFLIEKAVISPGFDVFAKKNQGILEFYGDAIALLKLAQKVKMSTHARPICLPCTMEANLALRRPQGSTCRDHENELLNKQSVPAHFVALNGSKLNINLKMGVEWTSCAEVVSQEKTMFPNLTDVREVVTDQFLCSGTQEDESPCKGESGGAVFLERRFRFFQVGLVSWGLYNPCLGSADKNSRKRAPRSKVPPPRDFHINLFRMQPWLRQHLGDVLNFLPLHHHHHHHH

B1: RF16-226 (antibody, human IgG4 S228P, lambda)
heavy: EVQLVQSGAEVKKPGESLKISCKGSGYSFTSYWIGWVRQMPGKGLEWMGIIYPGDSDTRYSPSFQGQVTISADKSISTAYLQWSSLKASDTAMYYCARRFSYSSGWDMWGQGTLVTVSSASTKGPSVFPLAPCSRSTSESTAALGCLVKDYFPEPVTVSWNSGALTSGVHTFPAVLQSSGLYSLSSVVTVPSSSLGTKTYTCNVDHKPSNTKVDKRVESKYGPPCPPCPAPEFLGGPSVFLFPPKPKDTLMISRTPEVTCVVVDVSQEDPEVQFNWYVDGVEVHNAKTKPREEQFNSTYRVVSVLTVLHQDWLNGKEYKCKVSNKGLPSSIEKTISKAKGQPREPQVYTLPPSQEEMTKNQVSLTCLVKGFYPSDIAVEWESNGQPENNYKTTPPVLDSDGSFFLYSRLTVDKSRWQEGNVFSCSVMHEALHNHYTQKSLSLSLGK
light: SYELTQPPSVSVSPGQTARITCSGDALTSKYVAWYQQKSGLAPLLVIYEDTRRPSGIPAKFSGSSSGSVATLTISGAHGDDEADYYCYSTDASGHQRVFGGGTKLTVLSQPKAAPSVTLFPPSSEELQANKATLVCLISDFYPGAVTVAWKADGSPVKAGVETTKPSKQSNNKYAASSYLSLTPEQWKSHRSYSCQVTHEGSTVEKTVAPTECS
notes: pH-dependent anti-C2 antibody from a phage display library; also called WT
In the case of B1, the Fold diff in assay [1] turned out to be 10 fold; in assay [2], 0 fold; in assay [3], 11 fold; in assay [4], 10 fold.

Values taken from US20220332804A1 (CSL INNOVATION, published 2022).
